From paper PMC11519345, “Structural variation of types IV-A1- and IV-A3-mediated CRISPR interference”

Legend:
[1] = molecular target: type IV-A3 Cas7 (Csf2) from Klebsiella pneumoniae (Klebsiella pneumoniae); assay: cryo-EM structure; type IV-A3 effector complex (10 µM) reconstituted with bubbled target dsDNA (15 µM) in 10 mM HEPES-Na pH 7.5, 150 mM NaCl, then SEC; without DinG
[2] = molecular target: type IV-A1 Cas7 (Csf2) from Pseudomonas oleovorans (Pseudomonas oleovorans); assay: cryo-EM structure; type IV-A1 effector complex (10 µM) reconstituted with bubbled target dsDNA (15 µM) in 10 mM HEPES-Na pH 7.5, 150 mM NaCl, then SEC; particle class without DinG
[3] = molecular target: Type IV-A3 effector complex (Cas5-Cas8-Cas7-Cas6 crRNP), DinG-free (Klebsiella pneumoniae) (UniProt A0A8G1XN67+A0A7Z7WW72+A0A333ESG5); assay: EMSA; conditions: crRNA; EMSA: 10 mM HEPES pH 7.5, 150 mM NaCl, 1 nM DNA, on ice then 20 min RT, 6% native PAGE in TBE at 4 C; cryo-EM: 10 uM complex + 15 uM DNA in the same buffer …; scale: fold tighter than type IV-A1 complex on its target
[4] = molecular target: T1, Type IV-A1 effector complex (Cas5-Cas8-Cas7-Cas6 crRNP), DinG-free (Pseudomonas oleovorans, UniProt A0A379PL53;A0A379PIR4;A0A379PIR9;A0A379PNK2 1-222;1-240;1-347;1-236); assay: cryo-EM; crRNA; no DinG; 3.0 A; PDB code not assigned in the material (8RC2/8RC3/8RFJ); EMSA: 10 mM HEPES pH 7.5, 150 mM NaCl, 1 nM DNA, on ice then 20 min RT, 6% native PAGE in TBE at 4 C; cryo-EM: 10 uM complex + 15 uM DNA in the same buffer, 10; conditions: protein: recombinant; tags: His6 C-terminal on Cas8; copies: 1;1;5;1; bubble: non-complementary protospacer, paired 15 nt and 14+ nt ends
T1 sequence 1: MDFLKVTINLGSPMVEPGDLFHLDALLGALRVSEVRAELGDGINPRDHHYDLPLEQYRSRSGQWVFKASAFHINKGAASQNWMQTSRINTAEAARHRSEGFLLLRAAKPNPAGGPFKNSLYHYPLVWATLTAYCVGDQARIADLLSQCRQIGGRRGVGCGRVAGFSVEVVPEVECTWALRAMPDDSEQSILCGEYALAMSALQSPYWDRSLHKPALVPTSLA
T1 sequence 2: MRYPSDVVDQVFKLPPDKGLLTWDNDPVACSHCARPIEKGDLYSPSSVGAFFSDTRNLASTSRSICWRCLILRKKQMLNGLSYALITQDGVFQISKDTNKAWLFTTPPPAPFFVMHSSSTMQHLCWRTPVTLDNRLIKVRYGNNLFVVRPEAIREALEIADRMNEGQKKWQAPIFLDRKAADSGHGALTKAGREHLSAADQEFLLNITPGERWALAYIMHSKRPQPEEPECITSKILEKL
T1 sequence 3: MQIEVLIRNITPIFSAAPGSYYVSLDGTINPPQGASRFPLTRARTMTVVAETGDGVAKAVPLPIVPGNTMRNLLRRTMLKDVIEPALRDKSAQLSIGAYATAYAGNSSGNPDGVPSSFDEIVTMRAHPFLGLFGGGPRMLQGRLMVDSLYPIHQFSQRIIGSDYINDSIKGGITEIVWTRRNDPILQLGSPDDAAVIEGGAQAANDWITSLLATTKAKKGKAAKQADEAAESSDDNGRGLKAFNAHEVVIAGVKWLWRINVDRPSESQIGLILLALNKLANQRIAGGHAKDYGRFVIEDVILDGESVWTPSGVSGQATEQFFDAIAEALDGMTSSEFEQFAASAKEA
T1 sequence 4: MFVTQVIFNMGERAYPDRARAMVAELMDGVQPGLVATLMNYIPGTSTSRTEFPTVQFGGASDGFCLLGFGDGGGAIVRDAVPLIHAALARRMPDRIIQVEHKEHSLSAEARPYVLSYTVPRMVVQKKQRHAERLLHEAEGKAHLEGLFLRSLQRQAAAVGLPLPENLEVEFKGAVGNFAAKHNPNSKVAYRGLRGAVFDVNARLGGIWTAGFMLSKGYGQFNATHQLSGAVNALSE

For “type IV-A3 Cas7 (Csf2) from Klebsiella pneumoniae (natural protein)”, the stoichiometry N [1] was 6.

Molecule “type IV-A1 Cas7 (Csf2) from Pseudomonas oleovorans (natural protein)” has a stoichiometry N [2] of 5.

IV-A3 EMSA target, no mismatch was tested, and the binding signal [3] was 10.

B1: Type IV-A1 bubbled target DNA (TS/NTS) for cryo-EM (dsDNA)
DNA 1: CGGTCGGGTCATACGTCGCGTCTCGAATCTGATGCGTAACTTGGATGCTTCGTGCGTGATG
DNA 2: CATCACGCACGAAGACCAAGTCAATGCTTAGTCTAATACCTGCGCTCGTATGACCCGACCG
B1: binds [4].
